The values below come from publication PMC9723501 (Nucleic Acids Research, 2022).

The data set “SEC-MALS” concerns the molecule itself. The data set is described as follows: SEC-MALS. For orientation: Size exclusion chromatography separates by hydrodynamic size, large species first.
The data set “ITC” concerns the molecule itself. The data set is described as follows: ITC. A general note: In ITC the heat of successive injections is recorded.

B1: PV 2C NΔ39 (poliovirus 2C protein lacking the amino-terminal 39 residues) (domain or fragment)
chain: ARDKLEFVTKLRQLEMLENQISTIHQSCPSQEHQEILFNNVRWLSIQSKRFAPLYAVEAKRIQKLEHTINNYIQFKSKHRIEPVCLLVHGSPGTGKSVATNLIARAIAERENTSTYSLPPDPSHFDGYKQQGVVIMDDLNQNPDGADMKLFCQMVSTVEFIPPMASLEEKGILFTSNYVLASTNSSRISPPTVAHSDALARRFAFDMDIQVMNEYSRDGKLNMAMATEMCKNCHQPANFKRCCPLVCGKAIQLMDKSSRVRYSIDQITTMIINERNRRSNIGNCMEALFQ
In general, stoichiometry N refers to the number of molecules, sites or subunits per partner or assembly. In general, Kd refers to the free concentration of one partner at which half of the binding sites on the other are occupied at equilibrium, for simple one-to-one binding. Read a low Kd as tighter binding. In the case of B1, the “stoichiometry N” value in the data set “SEC-MALS” was 2. Besides, the Kd in “ITC” is about 400 nM.
